Experimental findings from patent US20240228612A1 (SICHUAN KELUN BIOTECH BIOPHARMACEUTICAL, published 2024) are described below.

For one assay, the target named is T1, human Nectin-1 antigen (human, UniProt Q15223 31-334, limits assumed).
T1 sequence (looked up): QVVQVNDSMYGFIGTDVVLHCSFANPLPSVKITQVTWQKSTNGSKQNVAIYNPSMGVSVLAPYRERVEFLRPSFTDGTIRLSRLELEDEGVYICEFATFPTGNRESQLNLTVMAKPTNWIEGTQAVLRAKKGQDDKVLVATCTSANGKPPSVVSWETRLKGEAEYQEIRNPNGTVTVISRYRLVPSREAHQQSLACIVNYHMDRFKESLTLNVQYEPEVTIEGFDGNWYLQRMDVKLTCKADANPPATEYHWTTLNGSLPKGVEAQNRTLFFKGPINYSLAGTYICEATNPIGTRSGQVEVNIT
In words: ELISA, coated human Nectin-1, anti-human-HRP. On the procedure: (§1) The Nectin family includes members of Nectin-1, Nectin-2, Nectin-3 and Nectin-4, and the members share a sequence identity of about 25%, but have similar structure and function. […] The specific steps were as follows: human Nectin-1, Nectin-2, Nectin-3 and Nectin-4 antigens were diluted to 1 μg/mL with CBS coating solution, coated on an ELISA plate at 100 μL per well, and standed overnight at 4° C.; the liquid in the well was discarded on the next day, and washing was performed once with 300 μL of PBS; 100 μL of PBS (containing 2% BSA) was added, and blocking was performed at 37° C. for 2 hours; 31HZ, 56HZ, 74HZ and Enfortumab antibodies were diluted with PBS (containing 2% BSA), 100 μL was taken and added to the corresponding well, incubated at 37° C. for 2 hours; washing was performed 3 times with 300 μL of PBST; HRP-labeled goat anti-human secondary antibody was diluted at a ratio of 1:10000 with PBS (containing 2% BSA), 100 μL was taken and added to the corresponding well, incubation was performed at 37° C. for 1 hour; washing was performed 5 times with 300 μL of PBST; 100 μL of TMB color development solution was added to the corresponding well, and color development was performed at room temperature for 5-20 minutes; 50 μL of 2N H₂SO₄ was added for stopping, a microplate reader was used for collecting readings at OD450 nm, and the data were imported into Graphpad Prism for curve fitting.

Assay [1] addresses T2, cynomolgus monkey Nectin-4 protein (cynomolgus monkey).
T2 construct: also called cynomolgus monkey Nectin-4 antigen
Nature of the assay: BLI (Octet Fortebio), antibody on ProA sensor, Nectin-4 as analyte, 1:1 global fit. Here is the method: (§2) The dynamic affinity of anti-human Nectin-4 humanized monoclonal antibodies was detected using Octet Fortebio®. The main steps comprised: firstly, the anti-human Nectin-4 humanized monoclonal antibody (concentration of 5 μg/mL) was immobilized on ProA sensor, then subjected to binding reaction with human or cynomolgus monkey Nectin-4 (gradiently diluted to 400 nM, 200 nM, 100 nM, 50 nM, 25 nM, 12.5 nM, 6.25 nM, 0 nM), and the anchored product in the solid phase obtained through fully reaction was subjected to dissociation reaction in PBST buffer. After the completion of the experiment, the results were analyzed by using Data Analysis 11.0 software at 1:1 mode to perform global fitting, thereby obtaining the affinity constant of antibody to antigen.

In assay [2] the target is T3, human Nectin-4 protein (human, UniProt Q96NY8 32-349).
T3 construct: Purified protein used for coating in ELISA and as analyte in Octet; also called human Nectin-4 antigen
T3 sequence (looked up): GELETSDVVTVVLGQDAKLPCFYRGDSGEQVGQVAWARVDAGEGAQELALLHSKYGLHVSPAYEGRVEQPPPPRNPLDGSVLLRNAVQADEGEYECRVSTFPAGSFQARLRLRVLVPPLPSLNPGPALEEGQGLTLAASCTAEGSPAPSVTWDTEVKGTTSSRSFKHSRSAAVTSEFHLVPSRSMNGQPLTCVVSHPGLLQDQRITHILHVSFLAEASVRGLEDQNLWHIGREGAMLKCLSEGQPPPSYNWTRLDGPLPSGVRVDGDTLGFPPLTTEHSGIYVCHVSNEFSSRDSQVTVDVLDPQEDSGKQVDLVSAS
The description is as above. On the procedure: as §2

The target of the next assay is human Nectin-3 antigen (human, UniProt Q9NQS3 58-404, limits assumed). In words: ELISA, coated human Nectin-3, anti-human-HRP. On the procedure:
as §1

In assay [3] the target is T3, human Nectin-4 protein. Nature of the assay: competitive ELISA, coated Nectin-4; competitor biotin-labeled Nectin-1-hFc. Here is the method: Human Nectin-4 is linked to another Nectin-4 molecule or Nectin-1 molecule through the IgV domain. Because 31HZ, 56HZ and 74HZ all bind to the IgV domain of Nectin-4, the competitive activity of the three antibodies was detected by competitive ELISA. The specific steps were as follows: Nectin-4 protein was diluted to 2 μg/mL with CBS coating solution, 100 μL per well, and incubated at 37° C. for 2 hours; washing was performed once with 300 μL PBST, PBS (2% BSA) was then added, 100 μL per well, and incubation was performed at 37° C. for 2 hours; biotin-labeled Nectin-1-hFc was diluted with PBS (2% BSA) to 20 μg/mL; the antibody to be detected was diluted with PBS (2% BSA), wherein the dilution of 31HZ and 74HZ was started from 3.73 μg/mL, 3-fold dilution, and 9 concentration points, the dilution of 56HZ was started from 1.25 μg/mL, 2-fold dilution, and 10 concentration points; the above two diluted solutions were mixed well in equal volumes, and then added to the corresponding well at 100 μL/well, and incubation was performed at room temperature for 2 hours; washing was performed three times with 300 μL PBST; HRP-streptavidin was diluted with PBS (2% BSA) at a ratio of […], and added to the corresponding well at 100 μL/well, incubation was performed at room temperature for 1 hour; washing was performed five times with 300 μL of PBST; 100 μL of TMB was added to the corresponding well, color development was performed at room temperature for 10 minutes, and then terminated by adding 50 μL of 2N H₂SO₄, and a microplate reader was used for collecting readings at 450 nm.

The next assay addresses T4, human Nectin-2 antigen (human, UniProt Q92692 32-360, limits assumed).
T4 sequence (looked up): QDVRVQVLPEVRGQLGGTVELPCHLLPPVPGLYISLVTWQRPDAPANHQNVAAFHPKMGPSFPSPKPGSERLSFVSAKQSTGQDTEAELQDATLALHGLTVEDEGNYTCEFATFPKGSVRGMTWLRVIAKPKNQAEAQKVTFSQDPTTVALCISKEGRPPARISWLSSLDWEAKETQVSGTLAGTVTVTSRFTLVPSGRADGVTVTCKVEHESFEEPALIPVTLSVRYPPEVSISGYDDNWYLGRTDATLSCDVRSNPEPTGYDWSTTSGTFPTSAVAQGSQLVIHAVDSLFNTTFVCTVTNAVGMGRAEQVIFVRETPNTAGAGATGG
In words: ELISA, coated human Nectin-2, anti-human-HRP. On the procedure:
as §1

Chain of human Nectin-3 antigen (Q9NQS3 58-404 limits assumed): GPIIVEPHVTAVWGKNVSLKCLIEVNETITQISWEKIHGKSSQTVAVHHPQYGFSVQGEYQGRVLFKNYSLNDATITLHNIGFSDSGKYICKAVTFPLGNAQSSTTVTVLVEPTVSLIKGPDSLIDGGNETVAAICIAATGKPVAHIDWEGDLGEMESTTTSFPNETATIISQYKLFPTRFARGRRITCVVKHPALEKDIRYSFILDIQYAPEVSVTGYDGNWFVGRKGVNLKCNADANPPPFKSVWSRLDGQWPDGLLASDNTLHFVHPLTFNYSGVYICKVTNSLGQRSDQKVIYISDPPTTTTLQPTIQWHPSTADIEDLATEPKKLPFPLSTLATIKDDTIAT

B1: anti-human Nectin-4 humanized monoclonal antibody 56HZ (antibody, human IgG1, kappa, V domains shown)
VH: QVQLQESGPGLVKPSQTLSLTCTVSGYFNSITSDYDWHWIRHHPGKGLEWMGYISFSGRTYYNPSLKSRVTISHDTSKNQFSLKLSSVTAADTAVYYCARGNYDGFDYWGQGTLVTVSS
VL: DIVLTQSPATLSLSPGERATLSCRASQNIGTSIHWYQHKPGQSPRLLIKFASESISGIPARFSGSGSGTDFTLTISSLEPEDFAVYYCQQSKSWPTYTFGGGTKVEIKR
notes: Human IgG1 heavy chain constant region, human kappa light chain constant region; expressed in CHO-E cells
As to B1, the binding result with human Nectin-1 antigen, in the assay with human Nectin-3 antigen and with human Nectin-2 antigen was “no binding” throughout. In addition, the Kd was found to be 18.4 nM in assay [1] and 19.6 nM in the assay with human Nectin-4 protein [2]. In the assay with human Nectin-4 protein [3], this molecule returned an IC50 of 0.0269 µg/mL.

B2: anti-human Nectin-4 humanized monoclonal antibody 74HZ (antibody, human IgG1, kappa, V domains shown)
VH: QVQLVQSGAEVKKPGSSVKVSCKASGYTFINYWMNWVRQAPGQGLEWIGMIHPSDSATRLNQSFQGRVTLTVDKSTSTAYMELSSLRSEDTAVYYCARWGNFYTVNAWYYFDYWGQGTLVTVSS
VL: DIVITQSPDSLAVSLGERATINCKSSQTLLNSNTQKNYLAWYQQKPGQSPKLLFYFASTRESGVPDRFSGSGSGTDFTLTISSLQAEDVAVYFCQQHYSTPLTFGQGTKLEIKR
notes: as for B1
Consider B2, for which the binding result with human Nectin-1 antigen, in the assay with human Nectin-3 antigen and in the assay with human Nectin-2 antigen was “no binding (tested: 10000 ng/mL)” each time. The Kd came out at 9.54 nM in assay [1] and 12.1 nM with human Nectin-4 protein [2]. This molecule had an IC50 with human Nectin-4 protein [3] of 0.0272 µg/mL.

B3: anti-human Nectin-4 humanized monoclonal antibody 31HZ (antibody, human IgG1, kappa, V domains shown)
VH: QVQLVQSGAEVKKPGSSVKVSCKASGYTFTDYWMNWVRLAPGQGLEWIGMIHPSDSETRLNQKFQGRVTLTVDKSTSTAYMELSSLRSEDTAVYYCARWDFRIYYAMDYWGQGTLVTVSS
VL: DVVITQSPDSLAVSLGERATINCKSSQSLLNTNSQKNYLAWYQQKPGQSPKLLVYFASTRESGVPDRFSGSGSGTDFTLTISSLQAEDVAVYFCQQHYSTPLTFGGGTKVEIKR
notes: as for B1
For the molecule B3, the binding result with human Nectin-1 antigen, with human Nectin-3 antigen and with human Nectin-2 antigen was “no binding (tested: 10000 ng/mL)” in each case. In addition, the values for the Kd (in assay [1]; with human Nectin-4 protein [2]) were 14.5 nM and 22.5 nM, respectively. The same molecule gave a half-inhibitory concentration (IC50) in the assay with human Nectin-4 protein [3] of 0.0276 µg/mL.
